The subject of one data set is HT-29 (mut-p53) cells. Kind of data set: WST-1 cellular proliferation after miR-192 transfection. The note with it: HT-29, n=3. The class given is cell-based, human. The protocol: (§1) miR-192 inhibits cell proliferation of HCT-116 (wt-p53), RKO (wt-p53) and HT-29 (mut-p53) colon cancer cell lines. To assess the functional significance of miR-192, the impact of miR-192 on cellular proliferation was evaluated using HCT-116 (wt-p53), HCT-116 (null-p53), RKO (wt-p53) and HT-29 (mut-p53) colon cancer cell lines. The human colon cancer cell lines HCT-116 (wt-p53) and HCT-116 (null-p53) were provided by Prof Bert Vogelstein (The Johns Hopkins University) and were maintained in McCoy's 5A medium (Life Technologies). The other two human colon cancer cell lines, RKO (wt-p53) and HT-29 (mut-p53), were obtained from the American Type Culture Collection. The HT-29 (mut-p53) cell line has a missense mutation in codon 273 of p53 resulting in an Argto-His substitution. RKO (wt-p53) and HT-29 (mut-p53) cells were maintained in Eagle's MEM and Iscove's Modified Dulbecco's Medium at the American Type Culture Collection, respectively. All media were supplemented with 10% dialyzed fetal bovine serum (Hyclone Laboratories). All cell lines were grown at 37° C. in a humidified incubator with 5% CO2. The cell lines were transfected as described above (see Examples 1 and 2).
(§2) The cellular proliferation was evaluated as follows. HCT-116 (wt-p53) (FIG. 4A), HCT-116 (null-p53) (FIG. 4C), RKO (wt-p53) (FIG. 4B), and HT-29 cells (FIG. 4D) were plated in 96-well plates in triplicate at 1×10^3 cells per well after transfection with miR-192 precursor (illustrated as—Δ—) or non-specific control miRNA (illustrated as—□—). Cells were cultured for 24, 48, 72, or 96 hours. The absorbance at 450 and 630 nm was measured after incubation with 10 μl of WST-1 for 2 hours. A non-specific miR was used as a negative control.
(Formazan colour is commonly taken as a measure of viable cells.)

The subject of data set [1] is HCT-116 (null-p53) cells. Described as above. Conditions: n=3. The class given is cell-based, human. The protocol: as §1, §2
The subject of another data set is RKO (wt-p53) cells. The description is as above. The format is cell-based, human. Conditions: n=3. The protocol:
as §1, §2

In data set [2] the test system is HCT-116 (wt-p53) cells. Described as above. The format is cell-based, human. Conditions: overexpression vs non-specific miR, n=3. As for the experimental part: as §1, §2
The subject of a further data set is p21. Kind of data set: western immunoblot of p21 in HCT-116 (wt-p53) and U-2 OS cells. The class given is cell-based. Conditions: both HCT-116 (wt-p53) and U-2 OS cells, 48 h after transfection. The source says: miR-215 increases the expression of cell cycle control genes p53 and p21. p53 and p21, a downstream target of the p53 pathway of growth control, are reported to block cells at G2 checkpoint mainly through inhibiting activity of Cdc2, the cyclin-dependent kinase that normally drives cells into mitosis, which is the ultimate target of pathways that mediate rapid arrest in G2 in response to DNA damage. To further analyze the mechanism of cell proliferation inhibition by miR-215, we transfected miR-215 precursor into HCT-116 (wt-p53) and U-2 OS cells, and evaluated the levels of cell cycle control genes p53 and p21 by western immunoblot analysis.
For orientation: A western blot detects proteins with antibodies after separation by electrophoresis.

The next data set has as its system Rb. The data set is described as follows: Western immunoblot of Rb, HCT-116 (wt-p53). The format is cell-based, human. The protocol:
(§3) The expression of miR-192 on the expression of E2F3 and Rb in HCT-116 (wt-p53) cells was also analyzed. In these experiments, HVT-116 (wt-p53) cells, as described above (see Example 3) were transfected with non-specific miR (FIG. 7, lane 2), DHFR siRNA (FIG. 7, lane 3) or miR-192 (FIG. 7, lane 4) according to the procedure described above (see Examples 1 and 2). One HCT-116 (wt-p53) sample was not transfected, and used as a negative control (FIG. 7, lane 1). Western immunoblot analysis was performed according to the procedure described above (see Example 5), except that rabbit anti-E2F-3 polyclonal antibody (1:1000, C-18) (Santa Cruz Biotechnology) was used.

The subject of another data set is E2F3. The data set is described as follows: Western immunoblot of E2F3, HCT-116 (wt-p53). The class given is cell-based, human. The protocol: as §3
Data set [3] has as its system HCT-116 (wt-p53) cells. The data set is described as follows: cell cycle analysis by flow cytometry. The format is cell-based, human. Also noted: cell cycle profile G1/S / cell cycle profile G2/S: unit not given here. As for the experimental part: (§4) To determine whether the miR-192's impact on cellular proliferation was related to cell cycle control, the effect on cell cycle control was analyzed by flow cytometry using HCT-116 (wt-p53) (FIG. 5A) and HCT-116 (null-p53) (FIG. 5B) cells transfected with non-specific control miR (left line graph) or miR-192 (right line graph). This experiment was performed as follows. The HCT-116 (wt-p53) and HCT-116 (null-p53) cells lines as described above (see Example 3) were transfected with miR-192 precursor and the non-specific control miRNA described as above (see Examples 1 and 2). At 36 hours after transfection, the cells were harvested and resuspended at 0.5-1×10^5 cells/ml in modified Krishan buffer containing 0.1% sodium citrate and 0.3% NP-40 and kept at 4° C. Before being analyzed by flow cytometry, cells were treated with 0.02 mg/ml RNase H and stained with 0.05 mg/ml propidium iodide (Sigma).
miR-215 induces G2-arrest in HCT-116 (wt-p53) and U-2 OS cells. To investigate the mechanism by which miR-215 suppressed cell proliferation in HCT-116 (wt-p53) and U-2 OS cells, the impact of miR-215 on cell cycle control was analyzed by flow cytometry at 36 h after transfection. HCT-116 (wt-p53), HCT-116 (null-p53), U-2 OS and MG63 cells were transfected with miR-215 precursor and the non-specific control miRNA described as above. At 36 h after transfection, cells were harvested and resuspended at 0.5-1 10^5 cells/ml in modified Krishan buffer containing 0.1% sodium citrate and 0.3% NP-40 and kept at 4° C. Before analysis by flow cytometry, cells were treated with 0.02 mg/ml RNase H and stained with 0.05 mg/ml propidium iodide (Sigma).

Data set [4] concerns HCT-116 (null-p53) cells. The data set is described as follows: cell cycle analysis by flow cytometry. The class given is cell-based, human. The protocol: as §4
[5] abbreviates: HCT-116 (null), 36 hours after transfection.

B1: miR-192: microRNA miR-192 (SEQ ID NO:1), transfected into cells as miR-192 precursor (Ambion) (nucleic acid)
chain: GCCGAGACCGAGUGCACAGGGCUCUGACCUAUGAAUUGACAGCCAGUGCUCUCGUCUCCCCUCUGGCUGCCAAUUCCAUAGGUCACAGGUAUGUUCGCCUCAAUGCCAGC
modifications: delivered as precursor, further chemistry not given here
Regarding B1, in the data set with HT-29 (mut-p53) cells, the “suppression of cellular proliferation” value came out at 24%. For the same molecule, the “suppression of cellular proliferation” value in the data set with HCT-116 (null-p53) cells [1] is recorded as 15%. Also, the “suppression of cellular proliferation” value in the data set on RKO (wt-p53) cells turned out to be 48%. Further, the “suppression of cellular proliferation” value in the data set on HCT-116 (wt-p53) cells [2] is “over 55%”. For the same molecule, the p21 protein level result in the data set on p21 was “significant increase”. Besides, the “expression of Rb” value in the data set on Rb is reported as “decreased expression”. Besides, in the data set with E2F3, the “expression of E2F3” value is “decreased expression”. Also, in the data set with HCT-116 (wt-p53) cells [3] (36 hours after transfection), the “cell cycle profile G1” value was 40.84%, the “cell cycle profile G1/S” value amounted to 2.83, the “cell cycle profile G2” value stood at 44.71% and the “cell cycle profile G2/S” value is 3.09. For the same molecule, the “cell cycle profile S” value in the data set with HCT-116 (wt-p53) cells [3] (36 hours after transfection) amounted to 14.45%. Moreover, in the data set on HCT-116 (wt-p53) cells [3] (vs non-specific miR), the G1 arrest is recorded as above 2 fold and the G2 arrest is listed as above 3 fold. In the data set with HCT-116 (null-p53) cells [4] (setting [5]), the “cell cycle profile G1” value came out at 35.65%, the “cell cycle profile G1/S” value is listed as 0.79 ratio (unitless), the “cell cycle profile G2” value stood at 19.06% and the “cell cycle profile G2/S” value was 0.42 ratio (unitless). The “cell cycle profile S” value in the data set on HCT-116 (null-p53) cells [4] (setting [5]) stood at 45.29%. Further, the “G1 and G2 arrest” value with HCT-116 (null-p53) cells [4] (HCT-116 (null-p53)) was “has not been observed”.

Source of the values: US8927207B2, “miRNAs as therapeutic targets in cancer” (Research Foundation of State University of New York, priority 2008, dated 2015).
